# Assay results: paper PMC6093203
# Target: F-ΔC2-WWP2 (UniProt O00308)
# Experiment: fluorescence polarisation
substance,measurement,value
non-phosphorylated PTEN (n-PTEN) (natural protein),Kd,20 µM
